Measured values as given in publication PMC11252911 (Proceedings of the National Academy of Sciences of the …, 2024).

T1: HMA domain of OsHIPP43 (residues 26 to 101) (rice, UniProt Q8LJL3 26-101)
T1 construct: also called Os01g0507700
T1 sequence (looked up): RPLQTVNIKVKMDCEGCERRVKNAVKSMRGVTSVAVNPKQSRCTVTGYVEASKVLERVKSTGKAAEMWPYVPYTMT

B1: Pwl1 (natural protein)
chain: RKWTNKVIYNDKGEREGSISIRKGAEGDFNCGPGYPGGPDRMVRVHEDNGNIRGMPPGYRLGPDDKEDKRDNQYYSRNGYHVGDGPAEYQNHGGGQWGDGYYGPPGEITNQHGKRQGDQGCHIM

Experiments:
Assay in all cases: ITC
[1] = biological target: Pwl4 (Magnaporthe oryzae)
[2] = biological target: Pwl2 without the signal peptide (residues 22 to 145) (Magnaporthe oryzae)
[3] = biological target: T1, HMA domain of OsHIPP43 (residues 26 to …); details: both partners purified

Molecule	Kd [1]	Kd [2]	dH [2]	Kd [3]
HMA domain of OsHIPP43 (residues 26 to 101) (from UniProt Q8LJL3 26-101) (domain or fragment)	124 nM	191 nM	-67.6 kcal/mol	–
B1	–	–	–	147 nM
